Experimental data as given in patent US20110117658A1 (published 2011).
Bridges are numbered along the chain shown (N, C = ends). Where no end group is shown, it is not given here. [ ]: non-standard residue; d: D form. Gla = N[C@@H](CC(C(=O)O)C(=O)O)C(=O)O

Experiments:
[1] = biological target: the molecule itself; experiment: sedimentation equilibrium, monomer-dimer equilibrium model, in the absence of calcium; extrapolated dimer dissociation constant
Text: (§1) The hydroxyapatite lattice binding mode represented by the best solution presupposes that osteocalcin engages hydroxyapatite with the acidic Ca²⁺-coordinating surface as a monomer. In the crystal structure of porcine osteocalcin, however, the five Ca²⁺ ions are sandwiched between two crystallographically related protein molecules. If overly stable, this dimeric state could present an impediment to hydroxyapatite binding. To investigate whether porcine osteocalcin exists as a monomer or dimer in solution, sedimentation equilibrium analysis in the presence and absence of 10 mM CaCl₂ was carried out. In both cases, the sedimentation equilibrium data were best fitted to a monomer-dimer equilibrium model (FIG. 6). […] Theses Kd values are 2-3 orders of magnitude higher than the concentration of osteocalcin in human serum […],³¹ showing that osteocalcin exists as a monomer in vivo.

[2] = biological target: the molecule itself; experiment: sedimentation equilibrium, monomer-dimer equilibrium model, in the presence of 10 mM CaCl2; extrapolated dimer dissociation constant
Text: as §1

B1: porcine osteocalcin (other)
chain: YLDHGLGAPAPYPDPL[Gla]PRR[Gla]VC[Gla]LNPDCDELADHIGFQEAYRRFYGIA
modifications: disulfide 23-29; not fully specified
notes: the entries describe its self-association into a dimer; In the crystal only residues 13-49 are ordered (residues 1 to 12 missing from the model); also called pOC; POC13-49 (part seen in the crystal structure)
Kd [1]: 800 µM
Kd [2]: 200 µM
